This data set can be described thus: total protein half-life in vivo (active degradation + dilution); higher = more stable protein.
Where [1] appears, read: E. coli NCM3722 delta-clpP delta-lon delta-hslV, growth: N-lim chemostat, doubling time 6 h.
Setting [2] is: E. coli NCM3722 delta-clpP, growth: N-lim chemostat, doubling time 6 h.
Setting [3] is: E. coli NCM3722 delta-hslV, growth: N-lim chemostat, doubling time 6 h.
Where [4] appears, read: E. coli NCM3722 delta-lon, growth: N-lim chemostat, doubling time 6 h.
[5] abbreviates: E. coli NCM3722 delta-smpB, growth: N-lim chemostat, doubling time 6 h.
Setting [6] is: wild type E. coli NCM3722, growth: C-lim chemostat, doubling time 3 h.
Setting [7] is: wild type E. coli NCM3722, growth: C-lim chemostat, doubling time 6 h.
Where [8] appears, read: wild type E. coli NCM3722, growth: C-lim chemostat, doubling time 12 h.
Where [9] appears, read: wild type E. coli NCM3722, growth: N-lim chemostat, doubling time 6 h.
The mark [10] stands for this setting: wild type E. coli NCM3722, growth: N-lim chemostat, doubling time 12 h.
Where [11] appears, read: wild type E. coli NCM3722, growth: P-lim chemostat, doubling time 6 h.
The mark [12] stands for this setting: wild type E. coli NCM3722, growth: P-lim chemostat, doubling time 12 h.

± gives the standard deviation of the averaged measurements. Some results are limits rather than exact numbers.

Turning to “MSNNIRIEEDLLGTREVPADAYYGVHTLRAIENFYISNNKISDIPEFVRGMVMVKKAAAMANKELQTIPKSVANAIIAACDEVLNNGKCMDQFPVDVYQGGAGTSVNMNTNEVLANIGLELMGHQKGEYQYLNPNDHVNKCQSTNDAYPTGFRIAVYSSLIKLVDAINQLREGFERKAVEFQDILKMGRTQLQDAVPMTLGQEFRAFSILLKEEVKNIQRTAELLLEVNLGATAIGTGLNTPKEYSPLAVKKLAEVTGFPCVPAEDLIEATSDCGAYVMVHGALKRLAVKMSKICNDLRLLSSGPRAGLNEINLPELQAGSSIMPAKVNPVVPEVVNQVCFKVIGNDTTVTMAAEAGQLQLNVMEPVIGQAMFESVHILTNACYNLLEKCINGITANKEVCEGYVYNSIGIVTYLNPFIGHHNGDIVGKICAETGKSVREVVLERGLLTEAELDDIFSVQNLMHPAYKAKRYTDESEQ [P0AC38]”, the “total protein half-life in vivo” value was found to be 5.54 ± 0.31 h under setting [1]; 5.5 ± 1.1 h under setting [2]; 1.13 ± 0.052 h under setting [3]; 1.68 ± 0.16 h under setting [4]; 1.68 ± 0.45 h under setting [5]; 2.42 ± 0.11 h under setting [6]. Also, the “total protein half-life in vivo” value came out at 4.284 ± 0.012 h under setting [7]; 6.58 ± 0.62 h under setting [8]; 3.1 ± 0.18 h under setting [9]; 2.93 ± 0.087 h under setting [10]; 4.79 ± 0.14 h under setting [11]; 9.237 ± 0.036 h under setting [12].

“MFKNAFANLQKVGKSLMLPVSVLPIAGILLGVGSANFSWLPAVVSHVMAEAGGSVFANMPLIFAIGVALGFTNNDGVSALAAVVAYGIMVKTMAVVAPLVLHLPAEEIASKHLADTGVLGGIISGAIAAYMFNRFYRIKLPEYLGFFAGKRFVPIISGLAAIFTGVVLSFIWPPIGSAIQTFSQWAAYQNPVVAFGIYGFIERCLVPFGLHHIWNVPFQMQIGEYTNAAGQVFHGDIPRYMAGDPTAGKLSGGFLFKMYGLPAAAIAIWHSAKPENRAKVGGIMISAALTSFLTGITEPIEFSFMFVAPILYIIHAILAGLAFPICILLGMRDGTSFSHGLIDFIVLSGNSSKLWLFPIVGIGYAIVYYTIFRVLIKALDLKTPGREDATEDAKATGTSEMAPALVAAFGGKENITNLDACITRLRVSVADVSKVDQAGLKKLGAAGVVVAGSGVQAIFGTKSDNLKTEMDEYIRNH”: the “total protein half-life in vivo” value under setting [1] was determined as 6.96 ± 0.44 h; the “total protein half-life in vivo” value under setting [2] was found to be 6.21 ± 0.099 h; the “total protein half-life in vivo” value under setting [3] was 6.68 ± 1.2 h; the “total protein half-life in vivo” value under setting [4] stood at 6.75 ± 0.38 h; the “total protein half-life in vivo” value under setting [5] amounted to 6.19 ± 0.17 h; the “total protein half-life in vivo” value under setting [6] stood at 3.54 ± 0.097 h. Further, the “total protein half-life in vivo” value is 6.88 ± 0.64 h under setting [7]; 13.4 ± 2.5 h under setting [8]; 5.92 ± 0.44 h under setting [9]; 11.8 ± 0.38 h under setting [10]; 5.86 ± 0.2 h under setting [11]; 11.7 ± 1.6 h under setting [12].

As to “MTGMTNVTKLASEPSGQEFLVFTLGDEEYGIDILKVQEIRGYDQVTRIANTPAFIKGVTNLRGVIVPIVDLRIKFSQVDVDYNDNTVVIVLNLGQRVVGIVVDGVSDVLSLTAEQIRPAPEFAVTLSTEYLTGLGALGDRMLILVNIEKLLNSEEMALLDSAASEVA [P0A964]”, the “total protein half-life in vivo” value was 5.19 ± 0.61 h under setting [1]; 4.56 ± 0.37 h under setting [2]; 5.25 h under setting [3]; 5.4 ± 0.52 h under setting [4]; > 8 h under setting [5]; 1.741 ± 0.013 h under setting [6]. Besides, the “total protein half-life in vivo” value is 1.86 ± 0.086 h under setting [7]; 3.67 ± 1.6 h under setting [8]; 1.74 h under setting [9]; 2.23 h under setting [10]; 0.859 h under setting [11]; 9.75 h under setting [12].

Consider “MALTTISPHDAQELIARGAKLIDIRDADEYLREHIPEADLAPLSVLEQSGLPAKLRHEQIIFHCQAGKRTSNNADKLAAIAAPAEIFLLEDGIDGWKKAGLPVAVNKSQPLPLMRQVQIAAGGLILIGVVLGYTVNSGFFLLSGFVGAGLLFAGISGFCGMARLLDKMPWNQRA”, for which the “total protein half-life in vivo” value reads like this: under setting [1], 4.3 ± 0.19 h; under setting [2], 4.2 ± 0.14 h; under setting [3], 4.71 ± 0.24 h; under setting [4], 4.74 ± 0.82 h; under setting [5], 5.91 ± 1.4 h; under setting [6], 2.61 ± 0.23 h. The “total protein half-life in vivo” value came to 6.01 ± 1.2 h under setting [7]; 8.96 ± 2.1 h under setting [8]; 4.58 ± 0.2 h under setting [9]; 8.75 ± 0.24 h under setting [10]; 5.266 ± 0.016 h under setting [11]; 10.3 ± 0.39 h under setting [12].

For the sequence “MIISAASDYRAAAQRILPPFLFHYMDGGAYSEYTLRRNVEDLSEVALRQRILKNMSDLSLETTLFNEKLSMPVALAPVGLCGMYARRGEVQAAKAADAHGIPFTLSTVSVCPIEEVAPAIKRPMWFQLYVLRDRGFMRNALERAKAAGCSTLVFTVDMPTPGARYRDAHSGMSGPNAAMRRYLQAVTHPQWAWDVGLNGRPHDLGNISAYLGKPTGLEDYIGWLGNNFDPSISWKDLEWIRDFWDGPMVIKGILDPEDARDAVRFGADGIVVSNHGGRQLDGVLSSARALPAIADAVKGDIAILADSGIRNGLDVVRMIALGADTVLLGRAFLYALATAGQAGVANLLNLIEKEMKVAMTLTGAKSISEITQDSLVQGLGKELPAALAPMAKGNAA”, the “total protein half-life in vivo” value runs as follows: under setting [1], 6.01 ± 0.3 h; under setting [2], 5.992 ± 0.053 h; under setting [3], 4 ± 0.14 h; under setting [4], 3.3 ± 0.036 h; under setting [5], 3.68 ± 0.38 h; under setting [6], 2.28 ± 0.062 h. Also, the “total protein half-life in vivo” value under setting [7] is 3.76 ± 0.41 h; the “total protein half-life in vivo” value under setting [8] is 5.29 ± 0.5 h; the “total protein half-life in vivo” value under setting [9] was 3.73 ± 0.068 h; the “total protein half-life in vivo” value under setting [10] is 6.57 ± 0.92 h; the “total protein half-life in vivo” value under setting [11] worked out at 3.28 ± 0.48 h; the “total protein half-life in vivo” value under setting [12] stood at 6.38 ± 0.44 h.

With “MHGNSEMQKINQTSAMPEKTDVHWSGRFSVAPMLDWTDRHCRYFLRLLSRNTLLYTEMVTTGAIIHGKGDYLAYSEEEHPVALQLGGSDPAALAQCAKLAEARGYDEINLNVGCPSDRVQNGMFGACLMGNAQLVADCVKAMRDVVSIPVTVKTRIGIDDQDSYEFLCDFINTVSGKGECEMFIIHARKAWLSGLSPKENREIPPLDYPRVYQLKRDFPHLTMSINGGIKSLEEAKAHLQHMDGVMVGREAYQNPGILAAVDREIFGSSDTDADPVAVVRAMYPYIERELSQGTYLGHITRHMLGLFQGIPGARQWRRYLSENAHKAGADINVLEHALKLVADKR”, the “total protein half-life in vivo” value runs as follows: under setting [1], 4.26 ± 0.35 h; under setting [2], 4.49 ± 1.1 h; under setting [3], 4.51 ± 0.81 h; under setting [4], 4.31 ± 0.14 h; under setting [5], 4.07 ± 0.18 h; under setting [6], 3.01 ± 0.14 h. Besides, the “total protein half-life in vivo” value reads like this: under setting [7], 5.432 ± 0.022 h; under setting [8], 9.77 ± 1.5 h; under setting [9], 4.2 ± 0.5 h; under setting [10], 6.88 ± 0.21 h; under setting [11], 6.57 ± 1.6 h; under setting [12], 10.9 ± 1.2 h.

(Values after the supplement of paper PMC11246515.)
